{
  "source": "paper PMC10119362",
  "origin": "cited, not measured here",
  "target": "Amyloid-beta monomer (Homo sapiens) (UniProt P05067)",
  "data": [
    {"substance": "Gantenerumab", "values": [
      {"measurement": "Kd", "result": 23, "unit": "nM"}
    ]}
  ]
}
